Source: the Human Domainome abundance scans (Beltran et al. 2025)
± gives the uncertainty stated by the source.

B1: DnaJ homolog subfamily C member 2, residues 451 to 503; numbered along this chain, Q99543 (parent)
chain: SKNWSEDDLQLLIKAVNLFPAGTNSRWEVIANYMNIHSSSGVKRTAKDVIGKA

Variants of: B1
Assay: abundance fitness (aPCA) (normalised: wild type 0, dead -1); higher = more abundant; growth selection in yeast, the domain comes from the species named
Conditions: Homo sapiens

Abundance fitness of substitutions, site by site:
S25: F -0.272 ± 0.081 | E -0.159 ± 0.082 | N -0.384 ± 0.13 | G -0.077 ± 0.059 | Q -0.235 ± 0.11 | I -0.788 ± 0.15 | K -0.003 ± 0.12 | C -0.04 ± 0.076 | T -0.144 ± 0.092 | W -0.219 ± 0.096 | Y -0.281 ± 0.092 | D 0.062 ± 0.083 | A -0.094 ± 0.061 | L -0.239 ± 0.063
N35: T -0.345 ± 0.071 | H -0.519 ± 0.12 | C -0.587 ± 0.081 | M -0.56 ± 0.079 | V -0.815 ± 0.074 | W -0.897 ± 0.09 | S -0.186 ± 0.064 | Q -0.558 ± 0.092 | I -0.86 ± 0.13 | Y -0.775 ± 0.13 | D -0.685 ± 0.096 | K -0.871 ± 0.12 | R -0.59 ± 0.059 | P -1.08 ± 0.13 | L -1.07 ± 0.1 | G -0.646 ± 0.057
E28: Q 0.009 ± 0.092 | D -0.089 ± 0.14 | A -0.278 ± 0.074 | W -0.592 ± 0.077 | M -0.44 ± 0.089 | S -0.013 ± 0.072 | G -0.397 ± 0.063 | V -0.259 ± 0.074 | C -0.49 ± 0.13 | Y -0.866 ± 0.24 | P -0.627 ± 0.12 | T -0.351 ± 0.095 | N -0.312 ± 0.2 | F -0.376 ± 0.11 | K -0.237 ± 0.11 | R -0.138 ± 0.063
K43: H -0.173 ± 0.099 | N -0.025 ± 0.12 | W -0.259 ± 0.069 | C -0.06 ± 0.1 | P -0.209 ± 0.086 | G -0.302 ± 0.058 | D -0.015 ± 0.083 | F -0.179 ± 0.083 | M -0.146 ± 0.095 | R -0.045 ± 0.058 | A -0.133 ± 0.057 | S -0.153 ± 0.065 | I -0.147 ± 0.12 | L -0.067 ± 0.063 | E -0.096 ± 0.075 | T -0.006 ± 0.084
S38: A -0.224 ± 0.059 | Y -1.03 ± 0.18 | Q -0.176 ± 0.091 | N -0.162 ± 0.095 | W -1 ± 0.088 | C -0.169 ± 0.066 | G -0.069 ± 0.058 | F -0.822 ± 0.079 | I -1.04 ± 0.16 | D -0.61 ± 0.084 | V -0.755 ± 0.06 | R -0.435 ± 0.062 | L -0.86 ± 0.063 | P -0.936 ± 0.091 | H -0.525 ± 0.094 | E -0.609 ± 0.081 | T -0.116 ± 0.066 | K -0.517 ± 0.079
M34: W -0.666 ± 0.066 | H -0.683 ± 0.12 | R -0.963 ± 0.065 | P -0.553 ± 0.09 | D -0.833 ± 0.1 | E -0.816 ± 0.086 | F -0.317 ± 0.11 | C -0.136 ± 0.077 | Y -0.722 ± 0.094 | L -0.056 ± 0.064 | Q -0.696 ± 0.14 | G -0.977 ± 0.062 | A -0.895 ± 0.071 | V 0.003 ± 0.055 | I -0.011 ± 0.075
S39: Q -0.102 ± 0.082 | A 0.122 ± 0.067 | R 0 ± 0.056 | H 0.05 ± 0.094 | D 0.03 ± 0.093 | P 0.001 ± 0.08 | I -0.197 ± 0.1 | W -0.183 ± 0.067 | Y -0.339 ± 0.083 | M -0.122 ± 0.084 | E 0.076 ± 0.074 | N -0.076 ± 0.1 | K -0.086 ± 0.086 | F -0.362 ± 0.071 | V -0.158 ± 0.06 | L -0.095 ± 0.058 | G 0.016 ± 0.061
T23: M -0.221 ± 0.17 | Q -0.162 ± 0.14 | G -0.262 ± 0.097 | Y -0.201 ± 0.14 | L -0.221 ± 0.075 | R -0.649 ± 0.1 | E -0.325 ± 0.13 | V -0.302 ± 0.093 | P -0.539 ± 0.16 | S -0.276 ± 0.11 | I -0.226 ± 0.1 | H -0.147 ± 0.15 | K -0.587 ± 0.2 | F 0.038 ± 0.13
I36: T -0.007 ± 0.072 | Q 0.079 ± 0.11 | S 0.014 ± 0.058 | C 0.043 ± 0.068 | Y -0.141 ± 0.086 | F -0.116 ± 0.086 | N 0.049 ± 0.09 | G -0.009 ± 0.053 | L 0.049 ± 0.059 | H -0.135 ± 0.12 | W -0.134 ± 0.069 | K 0.208 ± 0.086 | P -0.994 ± 0.12
W27: D -0.419 ± 0.095 | T -0.475 ± 0.088 | Q -0.726 ± 0.096 | A -0.114 ± 0.072 | L -0.597 ± 0.071 | G -0.138 ± 0.054 | E -0.168 ± 0.077 | H -0.537 ± 0.12 | F -0.207 ± 0.1 | V -0.444 ± 0.061 | P -0.247 ± 0.082 | M -0.323 ± 0.089 | R -0.791 ± 0.061 | Y -0.299 ± 0.11 | N -0.581 ± 0.15 | I -0.286 ± 0.14 | C -0.261 ± 0.095
V29: G -0.026 ± 0.052 | S 0.01 ± 0.056 | Q 0.104 ± 0.078 | M 0.078 ± 0.071 | R 0.043 ± 0.053 | T 0.008 ± 0.062 | C -0.071 ± 0.073 | N -0.166 ± 0.13 | I -0.127 ± 0.068 | P -0.696 ± 0.098 | W -0.082 ± 0.065 | H -0.096 ± 0.091 | E -0.103 ± 0.079 | D 0.16 ± 0.092 | F -0.32 ± 0.1 | L -0.051 ± 0.059 | K -0.113 ± 0.089 | A 0.082 ± 0.064 | Y -0.166 ± 0.091
A46: W -0.348 ± 0.089 | C -0.094 ± 0.077 | G -0.246 ± 0.06 | M -0.22 ± 0.099 | R -0.222 ± 0.061 | P -0.083 ± 0.1 | S -0.099 ± 0.068 | T -0.114 ± 0.086 | I -0.167 ± 0.091 | Q -0.089 ± 0.097 | F -0.366 ± 0.091 | Y -0.305 ± 0.082 | H -0.309 ± 0.09 | N -0.567 ± 0.1 | L -0.355 ± 0.068 | E -0.067 ± 0.086 | K -0.087 ± 0.095
N24: W -0.279 ± 0.072 | Q -0.112 ± 0.11 | S -0.043 ± 0.066 | L -0.116 ± 0.064 | P -0.066 ± 0.09 | A 0.14 ± 0.083 | I -0.09 ± 0.098 | H 0.118 ± 0.17 | R -0.045 ± 0.06 | E 0.07 ± 0.079 | K -0.013 ± 0.079 | T -0.024 ± 0.089 | G -0.276 ± 0.054 | D 0.008 ± 0.088 | M -0.056 ± 0.086 | C -0.166 ± 0.091 | V -0.068 ± 0.061 | F -0.101 ± 0.097
Y33: Q -0.746 ± 0.11 | K -0.568 ± 0.11 | T -0.915 ± 0.097 | S -0.87 ± 0.079 | W -0.073 ± 0.066 | V -0.847 ± 0.072 | C -0.996 ± 0.12 | L -0.914 ± 0.077 | G -0.981 ± 0.072 | E -0.805 ± 0.091 | P -0.938 ± 0.11 | H -0.414 ± 0.12 | I -1.02 ± 0.2 | A -0.752 ± 0.082 | R -0.865 ± 0.067 | N -0.968 ± 0.14 | D -0.977 ± 0.12 | M -0.882 ± 0.1
G41: P -0.114 ± 0.074 | F 0.064 ± 0.13 | Y -0.25 ± 0.1 | W -0.645 ± 0.077 | K 0.001 ± 0.077 | A 0.089 ± 0.067 | I -0.119 ± 0.19 | C -0.103 ± 0.087 | R -0.061 ± 0.056 | T -0.072 ± 0.074 | E -0.151 ± 0.086 | L -0.186 ± 0.06 | M -0.035 ± 0.086 | H -0.129 ± 0.099 | D -0.066 ± 0.075 | N -0.143 ± 0.1
T45: I -0.33 ± 0.15
I30: Y -0.923 ± 0.13 | G -0.905 ± 0.056 | R -0.951 ± 0.063 | W -0.839 ± 0.067 | E -0.955 ± 0.076 | T -0.987 ± 0.12 | N -0.999 ± 0.24 | F -0.635 ± 0.1 | K -0.873 ± 0.095 | L -0.789 ± 0.068 | D -0.729 ± 0.12 | S -0.947 ± 0.072 | M -0.535 ± 0.071 | A -0.651 ± 0.062 | V -0.019 ± 0.057 | Q -1 ± 0.1 | P -0.94 ± 0.11
S40: N -0.16 ± 0.1 | Y -0.504 ± 0.1 | D -0.282 ± 0.085 | A 0.009 ± 0.069 | L -0.306 ± 0.066 | F -0.559 ± 0.099 | P -0.52 ± 0.091 | R -0.286 ± 0.055 | W -0.646 ± 0.08 | E -0.336 ± 0.087 | T -0.166 ± 0.076 | K -0.302 ± 0.074 | M -0.536 ± 0.12 | V -0.484 ± 0.07 | C -0.217 ± 0.072 | H -0.125 ± 0.098 | Q -0.158 ± 0.072
A31: L -0.463 ± 0.059 | Y -1.08 ± 0.15 | Q -0.549 ± 0.09 | I -0.82 ± 0.12 | W -0.857 ± 0.077 | P -0.837 ± 0.1 | N -0.768 ± 0.16 | H -0.919 ± 0.13 | T 0.051 ± 0.066 | E -0.859 ± 0.097 | D -0.831 ± 0.11 | K -0.357 ± 0.085 | G -0.607 ± 0.053 | F -1.01 ± 0.13 | V -0.397 ± 0.057 | R -0.384 ± 0.056 | S -0.179 ± 0.061 | M -0.66 ± 0.11
H37: Y -0.044 ± 0.081
V42: A -0.685 ± 0.24 | F -0.145 ± 0.25 | I 0.093 ± 0.092
N32: F -0.542 ± 0.14 | L -0.315 ± 0.058 | I -0.66 ± 0.11 | R -0.095 ± 0.057 | E 0.061 ± 0.07 | M -0.302 ± 0.088 | C -0.524 ± 0.11 | H 0.076 ± 0.09 | Y -0.507 ± 0.11 | G -0.2 ± 0.054 | W -0.38 ± 0.071 | D -0.016 ± 0.072 | P -0.93 ± 0.11 | A -0.04 ± 0.063 | K -0.083 ± 0.08 | Q -0.103 ± 0.089 | T -0.13 ± 0.077
R26: H -0.831 ± 0.46 | A -0.557 ± 0.48 | T -0.52 ± 0.43 | G -0.74 ± 0.21 | S -0.934 ± 0.29
K47: C -0.206 ± 0.091 | G -0.039 ± 0.065 | E 0 ± 0.11 | A 0.054 ± 0.079 | Q 0.057 ± 0.089 | M -0.111 ± 0.1 | N -0.065 ± 0.089 | F -0.22 ± 0.13 | L -0.097 ± 0.065 | P -0.133 ± 0.11 | I -0.017 ± 0.12
